Experimental data as given in patent US7049080B2, “Process for detecting serine/threonine kinase activity” (priority 2000, dated 2006).
Non-standard residues stand in square brackets, D forms with d. pY = N[C@@H](Cc1ccc(OP(=O)(O)O)cc1)C(=O)O; pT = C[C@@H](OP(=O)(O)O)[C@H](N)C(=O)O

Tests used:
[1] = system: T1, P1° peptide, H-Lys-Phe-Met-Met-Thr-Pro-pTyr-Val-Val-Thr-Arg-NH2
T1 sequence: KFMMTPYVVTR

[2] = system: NEB antibody #9251; experiment: FP controls conjugate/high/low (Example 7); format: binding, rabbit; settings: Low: P1*°-Tamra + NEB ab (1:20) + competitor 200 nM, 0 h
Procedure: The following reagents have been used (the compositions of the buffers and specifications of the reagents are explained in more detail later on): Hepes buffer, MgCl2 10 mM, ATP 20 μM, P1^∘ peptide at 100 μM, NEB antibody # 9251 1:20 dilution, P1*^∘-TAMRA 5 nM, Pluronic 0.1%, MKK7 at 0, 0.005, 0.02, 0.08, 0.2, 0.5 and 2 μM.
After addition of MKK7, the enzyme reactions were performed in Nunc chambers at RT. The samples were continuously measured at different time points by Fluorescence polarization.
Bis-phosphorylated peptide P1*^∘ can be used as competitor, resulting in free labelled ligand called “low” or “negative control”. This can be seen in the following table 1.

[3] = target: Anti active SAPK1/JNK-specific polyclonal antibody, New England Biolabs NEB #9251; experiment: competition with TAMRA-P1*° (5 nM) for the antibody, competitor up to 1 µM (FIG. 3)
[4] = target: Anti active SAPK1/JNK-specific polyclonal antibody, New England Biolabs NEB #9251; experiment: fluorescence polarization, competition with TAMRA-P1*° (5 nM) for NEB #9251 (1:20) in presence of 100 µM P1° substrate peptide, 20 µM ATP, 10 mM MgCl2
[5] = target: Anti active SAPK1/JNK-specific polyclonal antibody, New England Biolabs NEB #9251; experiment: fluorescence correlation spectroscopy, competition with TAMRA-P1*° (5 nM) for the NEB antibody (1:20)
[6] = target: Anti active SAPK1/JNK-specific polyclonal antibody, New England Biolabs NEB #9251; experiment: fluorescence polarization, 200 nM P1*° competing with TAMRA-P1*° (5 nM) for antibody 1:20, 0 h

MKK7 kinase (Upstate Biotech cat. no. 14-366)
FP, 100 µM P1°, MKK7 0.005 µM, 0 h [1]: 132 mP
FP, 100 µM P1°, MKK7 0.005 µM, 0.5 h [1]: 137 mP
FP, 100 µM P1°, MKK7 0.005 µM, 1 h [1]: 137 mP
FP, 100 µM P1°, MKK7 0.005 µM, 1.5 h [1]: 137 mP
FP, 100 µM P1°, MKK7 0.005 µM, 3 h [1]: 138 mP
FP, 100 µM P1°, MKK7 0.02 µM, 0 h [1]: 135 mP
FP, 100 µM P1°, MKK7 0.02 µM, 0.5 h [1]: 140 mP
FP, 100 µM P1°, MKK7 0.02 µM, 1 h [1]: 141 mP
FP, 100 µM P1°, MKK7 0.02 µM, 1.5 h [1]: 140 mP
FP, 100 µM P1°, MKK7 0.02 µM, 3 h [1]: 140 mP
FP, 100 µM P1°, MKK7 0.08 µM, 0 h [1]: 134 mP
FP, 100 µM P1°, MKK7 0.08 µM, 0.5 h [1]: 138 mP
FP, 100 µM P1°, MKK7 0.08 µM, 1 h [1]: 136 mP
FP, 100 µM P1°, MKK7 0.08 µM, 1.5 h [1]: 128 mP
FP, 100 µM P1°, MKK7 0.08 µM, 3 h [1]: 115 mP
FP, 100 µM P1°, MKK7 0.2 µM, 0 h [1]: 135 mP
FP, 100 µM P1°, MKK7 0.2 µM, 0.5 h [1]: 132 mP
FP, 100 µM P1°, MKK7 0.2 µM, 1 h [1]: 122 mP
FP, 100 µM P1°, MKK7 0.2 µM, 1.5 h [1]: 114 mP
FP, 100 µM P1°, MKK7 0.2 µM, 3 h [1]: 105 mP
FP, 100 µM P1°, MKK7 0.5 µM, 0 h [1]: 135 mP
FP, 100 µM P1°, MKK7 0.5 µM, 0.5 h [1]: 126 mP
FP, 100 µM P1°, MKK7 0.5 µM, 1 h [1]: 115 mP
FP, 100 µM P1°, MKK7 0.5 µM, 1.5 h [1]: 109 mP
FP, 100 µM P1°, MKK7 0.5 µM, 3 h [1]: 107 mP
FP, 100 µM P1°, MKK7 1.0 µM, 0 h [1]: 136 mP
FP, 100 µM P1°, MKK7 1.0 µM, 0.5 h [1]: 120 mP
FP, 100 µM P1°, MKK7 1.0 µM, 1 h [1]: 112 mP
FP, 100 µM P1°, MKK7 1.0 µM, 1.5 h [1]: 105 mP
FP, 100 µM P1°, MKK7 1.0 µM, 3 h [1]: 108 mP
FP, NEB ab in STOP sol., MKK7 0.04 µM, 0 h [1]: 147 mP
FP, NEB ab in STOP sol., MKK7 0.04 µM, 0.5 h [1]: 142 mP
FP, NEB ab in STOP sol., MKK7 0.04 µM, 1 h [1]: 140 mP
FP, NEB ab in STOP sol., MKK7 0.04 µM, 1.5 h [1]: 136 mP
FP, NEB ab in STOP sol., MKK7 0.04 µM, 2 h [1]: 134 mP
FP, NEB ab in STOP sol., MKK7 0.04 µM, 3 h [1]: 138 mP
FP, NEB ab in STOP sol., MKK7 0.08 µM, 0 h [1]: 143 mP
FP, NEB ab in STOP sol., MKK7 0.08 µM, 0.5 h [1]: 139 mP
FP, NEB ab in STOP sol., MKK7 0.08 µM, 1 h [1]: 134 mP
FP, NEB ab in STOP sol., MKK7 0.08 µM, 1.5 h [1]: 122 mP
FP, NEB ab in STOP sol., MKK7 0.08 µM, 2 h [1]: 116 mP
FP, NEB ab in STOP sol., MKK7 0.08 µM, 3 h [1]: 125 mP
FP, NEB ab in STOP sol., MKK7 0.2 µM, 0 h [1]: 148 mP
FP, NEB ab in STOP sol., MKK7 0.2 µM, 0.5 h [1]: 130 mP
FP, NEB ab in STOP sol., MKK7 0.2 µM, 1 h [1]: 114 mP
FP, NEB ab in STOP sol., MKK7 0.2 µM, 1.5 h [1]: 103 mP
FP, NEB ab in STOP sol., MKK7 0.2 µM, 2 h [1]: 99.2 mP
FP, NEB ab in STOP sol., MKK7 0.2 µM, 3 h [1]: 119 mP
FP, NEB ab in reaction, MKK7 0.04 µM, 0 h [1]: 150 mP
FP, NEB ab in reaction, MKK7 0.04 µM, 0.5 h [1]: 128 mP
FP, NEB ab in reaction, MKK7 0.04 µM, 1 h [1]: 126 mP
FP, NEB ab in reaction, MKK7 0.04 µM, 1.5 h [1]: 113 mP
FP, NEB ab in reaction, MKK7 0.04 µM, 2 h [1]: 110 mP
FP, NEB ab in reaction, MKK7 0.04 µM, 3 h [1]: 78.6 mP
FP, NEB ab in reaction, MKK7 0.08 µM, 0 h [1]: 138 mP
FP, NEB ab in reaction, MKK7 0.08 µM, 0.5 h [1]: 122 mP
FP, NEB ab in reaction, MKK7 0.08 µM, 1 h [1]: 106 mP
FP, NEB ab in reaction, MKK7 0.08 µM, 1.5 h [1]: 86.4 mP
FP, NEB ab in reaction, MKK7 0.08 µM, 2 h [1]: 84.5 mP
FP, NEB ab in reaction, MKK7 0.08 µM, 3 h [1]: 65 mP
FP, NEB ab in reaction, MKK7 0.2 µM, 0 h [1]: 137 mP
FP, NEB ab in reaction, MKK7 0.2 µM, 0.5 h [1]: 101 mP
FP, NEB ab in reaction, MKK7 0.2 µM, 1 h [1]: 83.1 mP
FP, NEB ab in reaction, MKK7 0.2 µM, 1.5 h [1]: 78.1 mP
FP, NEB ab in reaction, MKK7 0.2 µM, 2 h [1]: 72.1 mP
FP, NEB ab in reaction, MKK7 0.2 µM, 3 h [1]: 59.4 mP
Km for P1° peptide (read-out: fluorescence polarization) [1]: Km=94 nM±59 nM
phosphorylation of P1° peptide substrate by MKK7 kinase [1]: Efficient phosphorylation of P1° peptide is measured

H-Lys-Phe-Met-Met-pThr-Pro-pTyr-Val-Val-Thr-Arg-NH2 (H-KFMM[pT]P[pY]VVTR-NH2; SMILES CSCC[C@H](NC(=O)[C@H](Cc1ccccc1)NC(=O)[C@@H](N)CCCCN)C(=O)N[C@@H](CCSC)C(=O)N[C@H](C(=O)N1CCC[C@H]1C(=O)N[C@@H](Cc1ccc(OP(=O)(O)O)cc1)C(=O)N[C@H](C(=O)N[C@H](C(=O)N[C@H](C(=O)N[C@@H](CCCNC(=N)N)C(N)=O)[C@@H](C)O)C(C)C)C(C)C)[C@@H](C)OP(=O)(O)O) [P1*^∘]
Fluorescence Polarization [2]: 84.5 mP

B1: P1* peptide, H-Lys-Phe-Met-Met-pThr-Pro-Tyr-Val-Val-Thr-Arg-NH2 (peptide)
peptide: H-KFMM[pT]PYVVTR-NH2
SMILES: CSCC[C@H](NC(=O)[C@H](Cc1ccccc1)NC(=O)[C@@H](N)CCCCN)C(=O)N[C@@H](CCSC)C(=O)N[C@H](C(=O)N1CCC[C@H]1C(=O)N[C@@H](Cc1ccc(O)cc1)C(=O)N[C@H](C(=O)N[C@H](C(=O)N[C@H](C(=O)N[C@@H](CCCNC(=N)N)C(N)=O)[C@@H](C)O)C(C)C)C(C)C)[C@@H](C)OP(=O)(O)O
percent of the bound ligand displaced [3]: < 50%

B2: P1*° peptide, H-Lys-Phe-Met-Met-pThr-Pro-pTyr-Val-Val-Thr-Arg-NH2 (peptide)
peptide: H-KFMM[pT]P[pY]VVTR-NH2
SMILES: CSCC[C@H](NC(=O)[C@H](Cc1ccccc1)NC(=O)[C@@H](N)CCCCN)C(=O)N[C@@H](CCSC)C(=O)N[C@H](C(=O)N1CCC[C@H]1C(=O)N[C@@H](Cc1ccc(OP(=O)(O)O)cc1)C(=O)N[C@H](C(=O)N[C@H](C(=O)N[C@H](C(=O)N[C@@H](CCCNC(=N)N)C(N)=O)[C@@H](C)O)C(C)C)C(C)C)[C@@H](C)OP(=O)(O)O
IC50 [4]: 35.1 nM
IC50 [5]: 5 nM
fluorescence polarization [6]: 84.5 mP

B3: P1° peptide, H-Lys-Phe-Met-Met-Thr-Pro-pTyr-Val-Val-Thr-Arg-NH2 (peptide)
peptide: H-KFMMTP[pY]VVTR-NH2
SMILES: CSCC[C@H](NC(=O)[C@H](Cc1ccccc1)NC(=O)[C@@H](N)CCCCN)C(=O)N[C@@H](CCSC)C(=O)N[C@H](C(=O)N1CCC[C@H]1C(=O)N[C@@H](Cc1ccc(OP(=O)(O)O)cc1)C(=O)N[C@H](C(=O)N[C@H](C(=O)N[C@H](C(=O)N[C@@H](CCCNC(=N)N)C(N)=O)[C@@H](C)O)C(C)C)C(C)C)[C@@H](C)O
percent of the bound ligand displaced [3]: < 50%
